Reference: patent US6630572

Tests used:
[1] = molecular target: high-affinity cell surface thrombin receptor on mouse embryo (ME) cells (mouse) (UniProt P30558); test: cell-based or functional assay
[2] = molecular target: high-affinity cell surface thrombin receptor on mouse embryo (ME) cells (mouse) (UniProt P30558); test: competition with [^125I]-alpha-thrombin on ME cells
[3] = molecular target: high-affinity cell surface thrombin receptor on mouse embryo (ME) cells (mouse) (UniProt P30558); test: competition with [^125I]-alpha-thrombin (1 nM) on quiescent ME cells
[4] = molecular target: high-affinity cell surface thrombin receptor on mouse embryo (ME) cells (mouse) (UniProt P30558); test: competition with [^125I]-alpha-thrombin on ME cells; reference p508-530
[5] = molecular target: high-affinity cell surface thrombin receptor on mouse embryo (ME) cells (mouse) (UniProt P30558); test: competition with [^125I]-alpha-thrombin (1 nM) on quiescent ME cells; at 2.7 uM peptide
[6] = molecular target: high-affinity cell surface thrombin receptor on mouse embryo (ME) cells (mouse) (UniProt P30558); test: competition with [^125I]-alpha-thrombin (1 nM) for specific binding to quiescent ME cells, 23 C

- inhibition of alpha-thrombin stimulated DNA synthesis in ME cells by 625 nM p517-520, at 0.8 nM alpha-thrombin [1]: 75%
- inhibition of alpha-thrombin stimulated DNA synthesis in ME cells by 625 nM p517-520, at 13.0 nM alpha-thrombin [1]: 35%
- molar excess of p517-520 over alpha-thrombin required for inhibition of stimulation [1]: 500 to 1000 fold
- percent of [^125I]-alpha-thrombin binding competed [2]: 30 to 50%
- concentration at Maximal % Inhibition [3]: 2.7 µM
- fold higher concentration for 30% inhibition than p508-530 [4]: 50 fold
- Maximal % Inhibition [5]: 50%
- Concentration Required for 30% Inhibition [6]: 300 nM
Binder: RGDA [synthetic peptide p517-520 (residues 517 to 520 of human prothrombin)]
